Measured values reported in patent US6492106B1, “Mammalian proteins that bind to FKBP12 in a rapamycin-dependent fashion” (The Johns Hopkins University, priority 1994, dated 2002).
“Also recorded” adds a separate entry of the source.

What was measured:
[1] = biological target: RAFT1 (Rapamycin And FKBP12 Target 1), 245 kDa protein (rat) (UniProt P42346); assay: DSS crosslinking in heparin column eluate with 1 uM rapamycin plus 1 uM FK506 (small-molecule competitor)
[2] = biological target: RAFT2 (Rapamycin And FKBP12 Target 2), 35 kDa protein; assay: as above
[3] = biological target: FKBP12 / RAFT1 (245 kDa) and RAFT2 (35 kDa) (Rattus norvegicus, UniProt P42346+Q62658); assay: Crosslinking assay: 32P-FKBP12 with heparin column eluate of rat brain cytosol

32P-radiolabeled FKBP12 probe (recombinant rat FKBP12 with two consensus PKA sites added at the N-terminus, cleaved from GST with thrombin) (from UniProt Q62658 1-108)
reduction of crosslinked band intensity [1]: 50% | reduction of crosslinked band intensity [2]: 50%

C=CC[C@@H]1/C=C(\C)C[C@H](C)C[C@H](OC)[C@H]2O[C@@](O)(C(=O)C(=O)N3CCCC[C@H]3C(=O)O[C@H](/C(C)=C/[C@@H]3CC[C@@H](O)[C@H](OC)C3)[C@H](C)[C@@H](O)CC1=O)[C@H](C)C[C@@H]2OC [FK506, reference compound]
reduction of the intensities of the crosslinked bands ([3]; equal concentrations (1 μM) of rapamycin and FK506): approximately 50%

B1: unlabeled FKBP12: immunophilin receptor protein for FK506 and rapamycin, used unlabeled in excess (1 μM) as competitor (protein)
chain: GVQVETISSGDGRTFPKRGQTCVVHYTGMLEDGKKFDSSRDRNKPFKFTLGKQEVIRGWEEGVAQMSVGQRAKLIISPDYAYGATGHPGIIPPHATLVFDVELLKLE
antagonism of rapamycin-induced crosslinking of 32P-FKBP12 to the target proteins ([3]; competitor at 1 μM, all rapamycin concentrations tested): prevent the rapamycin-dependent association; also recorded: completely suppressed the appearance of the crosslinked bands
